Data on 140 substances can be found in the supplement of paper PMC12042874.

± gives the uncertainty stated by the source.

The nature of this data set: amyloid nucleation score (Sup35N fusion, yeast selection) (log enrichment); library NNK1; higher = more nucleation; inactive = no reads after selection. Summed up: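 Psi-negative yeast expressed Sup35N fused to peptides of 20 random codons. They were induced 24 hours with 100 μM copper sulfate, grown 7 days at 30°C without adenine and uracil, and their plasmid inserts from input and output were Illumina-sequenced. The nucleation score is the DiMSum log enrichment of output over input reads, centred on the mode score of non-aggregating sequences. Sequences with under 100 input reads were excluded.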

For the substance HCYRITYKRSNRDVL, the amyloid nucleation score came to 1.76 ± 0.36.
VLDGVNNNILLCLISRWGVL yielded an amyloid nucleation score of 4.46 ± 0.079.
In turn, FAAVPYISVLIRRLCLPYRT displayed an amyloid nucleation score of 1.07 ± 0.7.
FYVGDVITHHWEAELNYSDV showed an amyloid nucleation score of -0.573 ± 1.7.
With VLSVSCVRYISGVRERWYVL, the amyloid nucleation score came out at 1.23 ± 0.6.
Then YMISNMVKVVFSSTDRNVGN, with 5.935 ± 0.051.
The substance LHFVERLSLRPMGVVGFSRK showed an amyloid nucleation score of -0.178 ± 0.7.
For the substance NHVYCVWMRMFMIYFNL, the amyloid nucleation score is -0.17 ± 0.54.
In the case of VMPSSELYF it was 0.349 ± 0.39; in that of IEVDPTNSKKSAPDTHLGSL, -0.001 ± 0.95; in that of WSIKFQS, -0.123 ± 0.49.
Then VLSSGESIRNTAINVEVEHQ, with 0.449 ± 0.38; and PKGIGGGCARTYRHRVRGSR, with 0.184 ± 0.64.
KWDKVALYFDQVQITELCIY: the amyloid nucleation score was 4.21 ± 0.091.
Then CLSELGFAVPTSWTICILCT, with 0.656 ± 0.59.
In turn, FAWGREVRLEIEY showed an amyloid nucleation score of 0.371 ± 0.31.
For the substance LKVLYLRSDRVSWVSKPLVI, the amyloid nucleation score is -0.405 ± 0.87.
In turn, CVPDGKFRSKRIPGRNFPLL had an amyloid nucleation score of 0.278 ± 0.42.
YSVLVPIPLSCCISDVLYCT returned an amyloid nucleation score of 5.61 ± 0.064.
ITRPGKWGRGD yielded an amyloid nucleation score of 0.782 ± 0.35.
YWYFYISDRVKDNSCSNWSL returned an amyloid nucleation score of -1.03 ± 0.47.
Then YDRVLNLSDSWCTNAAPWWG, with 0.394 ± 0.43.
The substance WVLAVRTSNLCRRGMLYKL came in with an amyloid nucleation score of -0.662 ± 0.45.
For LQSAVRWWHFDSRLGEAKLM, the amyloid nucleation score stood at 0.902 ± 0.69.
In the case of YFGMSY it was -1.38 ± 0.66; in that of FSMGQQMFVLVLSCFLVLWC, 0.832 ± 0.65.
Take FTLRSDVAQQVIDDMGAVGS: the amyloid nucleation score was -1.11 ± 1.5.
In the case of HSVLVVSVVHCGFKQKRNK, the amyloid nucleation score turned out to be 3.98 ± 0.15.
Substance ILIRNIMCSGSVSLSNLGSG showed an amyloid nucleation score of -0.134 ± 1.
Turning to WHYNMLYCLLRRSRLCWNIV, the amyloid nucleation score was -0.403 ± 0.48.
LNNTVEDPA came in with an amyloid nucleation score of 0.892 ± 0.92.
In the case of ISKFFYLVW it was 0.097 ± 0.52; in that of CAVLLGSIVHMLFAYE, 0.132 ± 0.61; in that of ECAIKG, 1.38 ± 0.69.
In the case of FPEFIVFRMRIVYIVSFRTW, the amyloid nucleation score turned out to be 1.06 ± 0.47.
The substance SMSPVSSVTN showed an amyloid nucleation score of 0.07 ± 0.35.
For the substance NFTTVAVLRFNDNGR, the amyloid nucleation score was determined as 4.43 ± 0.066.
The substance VQEYGASCKSMTGLGTLKCK returned an amyloid nucleation score of 0.876 ± 0.81.
The substance TYRLIRSFC returned an amyloid nucleation score of 0.368 ± 0.4.
QTRVCTNDKSSFTLQTGRW came in with an amyloid nucleation score of 3.26 ± 0.14.
On to WNRYWNLFYRGTLDSTAIGS, for which the amyloid nucleation score is -1.76 ± 2.4.
Take FLISWTIVMHVCTMTDACCR: the amyloid nucleation score entry is “inactive”.
In the case of CWCMFCTASL it was 7.637 ± 0.064; in that of PGFFWHICFG, 4.55 ± 0.082; in that of YMLWSVPRLWCRVWLPTVAC, 0.585 ± 0.64.
In the case of VFVVSVNHRMIVNFTSCLNV, the amyloid nucleation score entry was “inactive”.
In the case of VNCISHGACMCRWFYDSGKK it was 0.847 ± 0.38; in that of YVMDYSD, 0.096 ± 0.61; in that of SMEIYLDFMNVCSKMVNASG, -0.093 ± 0.3.
On to FRRFIFFVGYGHFIFWASWL, for which the amyloid nucleation score is -0.156 ± 0.68.
In the case of GKFRYHGRAMRHSARALIYF it was 0.451 ± 0.42.
As for PIKAPLGASCGFAVRVTRTM, the amyloid nucleation score came to 0.391 ± 0.46.
In the case of SFFLFRENFEMSNIRFRYVN it was 0.995 ± 0.68; in that of RKASYLSAVNMQFRESFLFW, -0.209 ± 0.28; in that of MCPSIQCYNNYILLQRSVIR, 7.08 ± 0.073.
In the case of FEGILIKFCFGAWESDKVTM it was 1.36 ± 0.59; in that of LDHTTVWCWCGTGGLYRRCC, -0.29 ± 0.31; in that of SDAMSTHQRVNRF, 0.369 ± 0.55.
On to LVISSRREKR, for which the amyloid nucleation score stood at 0.009 ± 0.57.
For RLGAGCSPSLVLS, the amyloid nucleation score is 0.197 ± 0.56.
TGIYYWNRKLGRYRLHVHVV gave an amyloid nucleation score of -0.15 ± 0.97.
Consider VAGAVNNSWWGLSNVARAKR, for which the amyloid nucleation score amounted to 0.082 ± 0.54.
With ASHFELYRLRKGLMCSVVSI, the amyloid nucleation score result was “inactive”.
IGFEIHFMYALE: the amyloid nucleation score was 0.355 ± 1.
The substance LWRNKTHISVLQRGQVYHQT yielded an amyloid nucleation score of 0.182 ± 0.57.
Turning to GYKRFYLLVKLYVFERINIA, the amyloid nucleation score is -0.244 ± 0.31.
Substance HNSHRWYMGGTNVGVSCI gave an amyloid nucleation score of 0.456 ± 0.93.
In turn, RCFMFSTGEALTNEDRSLRR returned an amyloid nucleation score of 1.12 ± 0.6.
With SCYTVYQLGLDVGRGVDLEF, the amyloid nucleation score was -0.013 ± 0.58.
Then LTISTYSCWGEF, with 0.456 ± 0.66; and PCALGECRLVNSVISRGFGR, with 0.38 ± 1.2.
In turn, SWASKRCSPCCDGSGFPMYL gave an amyloid nucleation score of -1.37 ± 2.7.
In the case of QRLGQGIGGEWPTKL it was 0.995 ± 0.67; in that of VSQTPWTLYLN, 0.229 ± 0.26.
The substance KNALWVRTVKNMCVLWDTGF came in with an amyloid nucleation score of -1.08 ± 1.4.
DFYYNALIREVGQ had an amyloid nucleation score of -0.825 ± 0.75.
YILPEAEHSKGC displayed an amyloid nucleation score of 0.803 ± 0.63.
With NLALITWFESYCQTMRSAWI, the amyloid nucleation score was -0.145 ± 0.26.
Substance IWYSDVGPTTN displayed an amyloid nucleation score of -1.14 ± 0.56.
Consider YINLVLGFSYVFLLGLANRM, for which the amyloid nucleation score was -0.773 ± 0.24.
In the case of SMFKGTIWRQHSLS it was 0.618 ± 0.85; in that of HTRNVKTLRVKHSIDVPFLP, 1.41 ± 0.74; in that of GIHNFEGGMTLWLLLFSQRS, 0.24 ± 1.2.
For the substance NDLFMESLL, the amyloid nucleation score is 0.025 ± 0.43.
For NMLWSGITKFGGRGLKSMVV, the amyloid nucleation score was -0.169 ± 0.88.
Turning to TMLLDAYHEFKWANTNLFWL, the amyloid nucleation score is -0.263 ± 0.93.
GHWPQRCIMVVECYQRQAHK: the amyloid nucleation score was 0.115 ± 0.65.
Turning to TASHFGNKWV, the amyloid nucleation score came to 0.352 ± 0.32.
NQIFVQCSVGKAWDRSKSVD displayed an amyloid nucleation score of 4.12 ± 0.081.
The substance RQSRLAYGCVLVYVLTADFG came in with an amyloid nucleation score of -0.025 ± 0.29.
EKHEVVCIVKTVR displayed an amyloid nucleation score of 0.424 ± 0.85.
Substance RTRLFYFGPDNNRVRRRGCS had an amyloid nucleation score of 1.13 ± 0.71.
In turn, SMKCRNGILWFQRLVYLLLS gave an amyloid nucleation score of -0.747 ± 0.56.
For the substance FVRVANMVAWYNASRRLR, the amyloid nucleation score result was “inactive”.
In the case of LILFVGIYTLHYYGFNRRYS it was 0.272 ± 0.69.
For the substance KEDAIIWVYNKSVSMRIFVQ, the amyloid nucleation score is -0.104 ± 0.46.
In the case of SLECLALTFVGYVTGRLMDL it was -1.02 ± 1.7; in that of RDSLSSVSA, -0.382 ± 0.62.
Turning to LKVPCL, the amyloid nucleation score was -0.067 ± 0.59.
Substance GIENLRTDV yielded an amyloid nucleation score of 1.34 ± 0.37.
In the case of TLVVGMRLDNHDHA, the amyloid nucleation score was 1.14 ± 0.21.
In turn, VHIFCSTTCFFMNFMLIQNK came in with an amyloid nucleation score of -0.045 ± 0.51.
For the substance HRPDIHFVVPVTAP, the amyloid nucleation score is -0.619 ± 0.4.
For the substance SVMFQECFVNEFIGVHRCRD, the amyloid nucleation score stood at 6.324 ± 0.047.
Turning to SKWYSDQT, the amyloid nucleation score result was “inactive”.
Substance VTYTEYCSVLLKTH registered an amyloid nucleation score of -1.81 ± 2.4.
As for EECAFYSSMK, the amyloid nucleation score entry is “inactive”.
ALPIMKLMACVCGQKGMTYA showed an amyloid nucleation score of -0.047 ± 0.69.
As for SLDDPFRENCLLESFSLMLS, the amyloid nucleation score was -0.552 ± 1.9.
Regarding IIYNAKE, the amyloid nucleation score was determined as 0.367 ± 0.36.
The substance LARYMIYWGLMSAGRHRRHY returned an amyloid nucleation score of -0.46 ± 0.43.
GWSIMVGQMASLLWCIRAGT registered an amyloid nucleation score of 0.116 ± 0.3.
In the case of LRASAWHQFHFAV, the amyloid nucleation score came out at 0.376 ± 0.78.
On to VVVFVSE, for which the amyloid nucleation score was determined as 0.997 ± 0.65.
VFYKYRQGARYDFF came in with an amyloid nucleation score of 0.227 ± 0.89.
LGTLNAGHTRDVDGAMGYVW had an amyloid nucleation score of 0.252 ± 1.1.
For the substance GLLSK, the amyloid nucleation score is -0.062 ± 0.56.
Turning to AGVCRNNSPLIHTFNF, the amyloid nucleation score was 0.728 ± 0.64.
As for RWSWTVIMSMEADGCFRLHL, the amyloid nucleation score turned out to be 1.68 ± 0.28.
In the case of LISFEHEFKRCHCALVTWT it was -0.048 ± 0.3; in that of VLLTMWFNFFLLRNRGVVFS, 2.65 ± 0.08.
With RRAPLNLTREVSSVWEWRII, the amyloid nucleation score was -0.631 ± 0.68.
Then AIQYHNWGSEACLWHERESG, with 0.225 ± 0.26; and YIFSHDKGMRR, with 2.49 ± 0.25.
In the case of IAMLSCQRWMCQQTVTSKF it was -1.29 ± 0.77.
Take IPYLN: the amyloid nucleation score turned out to be 1.15 ± 0.54.
Take GLRVPPHDVLMSIARLDVSK: the amyloid nucleation score entry is “inactive”.
In turn, RAVLSTSELGLPTV showed an amyloid nucleation score of 0.27 ± 0.89.
For TLCPLDFHRDTARELCPRGV, the amyloid nucleation score stood at 0.049 ± 0.4.
Then HVDKFLG, with -0.025 ± 0.6; and WDWSERLQAFWSVTLSSNSW, with 0.517 ± 0.71.
As to YRYSSIF, the amyloid nucleation score is -0.954 ± 1.4.
The substance VVSVMLAFYTKDSFVVWLNL registered an amyloid nucleation score of 1.02 ± 0.15.
In turn, NPSFNPWNDHHYCTSGMCML displayed an amyloid nucleation score of 0.562 ± 0.81.
Then NQDMVNMIHETFIVLARVVI, with -0.059 ± 0.38; and YFKLIVLVGLNAREWRAAMV, with -0.221 ± 0.4.
In the case of HWLTV it was -1.27 ± 1.6; in that of LPWRRGWSFSTLVSLTGLSA, 0.353 ± 0.31.
Turning to NYICMGP, the amyloid nucleation score is 1.38 ± 0.41.
In the case of YISFHTTSYRFRLYRLL it was 0.894 ± 0.17.
